Experimental data taken from PMC9700037, “Inflammasome sensor NLRP1 disease variant M1184V promotes autoproteolysis and DPP9 complex formation by stabilizing the FIIND domain” (The Journal of Biological Chemistry, 2022).

Target: the molecule itself
Assay: SEC; purified full-length MBP-NLRP1, Superose 6 increase (10/300) GL, 0.5 ml/min, buffer A (25 mM Hepes pH 7.5, 150 mM NaCl, 0.5 mM TCEP, 10% glycerol); fractions checked by SDS-PAGE

B1: MBP-NLRP1 M1184V (full length) (natural protein, human, UniProt Q9C000 1-1473, looked up)
chain: MAGGAWGRLACYLEFLKKEELKEFQLLLANKAHSRSSSGETPAQPEKTSGMEVASYLVAQYGEQRAWDLALHTWEQMGLRSLCAQAQEGAGHSPSFPYSPSEPHLGSPSQPTSTAVLMPWIHELPAGCTQGSERRVLRQLPDTSGRRWREISASLLYQALPSSPDHESPSQESPNAPTSTAVLGSWGSPPQPSLAPREQEAPGTQWPLDETSGIYYTEIREREREKSEKGRPPWAAVVGTPPQAHTSLQPHHHPWEPSVRESLCSTWPWKNEDFNQKFTQLLLLQRPHPRSQDPLVKRSWPDYVEENRGHLIEIRDLFGPGLDTQEPRIVILQGAAGIGKSTLARQVKEAWGRGQLYGDRFQHVFYFSCRELAQSKVVSLAELIGKDGTATPAPIRQILSRPERLLFILDGVDEPGWVLQEPSSELCLHWSQPQPADALLGSLLGKTILPEASFLITARTTALQNLIPSLEQARWVEVLGFSESSRKEYFYRYFTDERQAIRAFRLVKSNKELWALCLVPWVSWLACTCLMQQMKRKEKLTLTSKTTTTLCLHYLAQALQAQPLGPQLRDLCSLAAEGIWQKKTLFSPDDLRKHGLDGAIISTFLKMGILQEHPIPLSYSFIHLCFQEFFAAMSYVLEDEKGRGKHSNCIIDLEKTLEAYGIHGLFGASTTRFLLGLLSDEGEREMENIFHCRLSQGRNLMQWVPSLQLLLQPHSLESLHCLYETRNKTFLTQVMAHFEEMGMCVETDMELLVCTFCIKFSRHVKKLQLIEGRQHRSTWSPTMVVLFRWVPVTDAYWQILFSVLKVTRNLKELDLSGNSLSHSAVKSLCKTLRRPRCLLETLRLAGCGLTAEDCKDLAFGLRANQTLTELDLSFNVLTDAGAKHLCQRLRQPSCKLQRLQLVSCGLTSDCCQDLASVLSASPSLKELDLQQNNLDDVGVRLLCEGLRHPACKLIRLGLDQTTLSDEMRQELRALEQEKPQLLIFSRRKPSVMTPTEGLDTGEMSNSTSSLKRQRLGSERAASHVAQANLKLLDVSKIFPIAEIAEESSPEVVPVELLCVPSPASQGDLHTKPLGTDDDFWGPTGPVATEVVDKEKNLYRVHFPVAGSYRWPNTGLCFVMREAVTVEIEFCVWDQFLGEINPQHSWMVAGPLLDIKAEPGAVEAVHLPHFVALQGGHVDTSLFQVAHFKEEGMLLEKPARVELHHIVLENPSFSPLGVLLKMIHNALRFIPVTSVVLLYHRVHPEEVTFHLYLIPSDCSIRKAIDDLEMKFQFVRIHKPPPLTPLYMGCRYTVSGSGSGMLEILPKELELCYRSPGEDQLFSEFYVGHLGSGIRLQVKDKKDETLVWEALVKPGDLMPATTLIPPARIAVPSPLDAPQLLHFVDQYREQLIARVTSVEVVLDKLHGQVLSQEQYERVLAENTRPSQMRKLFSLSQSWDRKCKDGLYQALKETHPHLIMELWEKGSKKGLLPLSS
notes: NLRP1, human, isoform 1, residues 1-1473, codon-optimized, natural variant M1184V; More autocleaved between F1212 and S1213 than the wt; source: Sf9 insect cells, purified (MBPTrap, SEC); not shown: MBP, N-terminal, kept
  binding result: binds
